The labels stand for the following.
B1: Her2/neu.1174.F1I8 (peptide)
peptide: FPGKNGVI
notes: 8-mer analog of the HER2/neu peptide starting at position 1174
B2: HER2/neu peptide, position 484, 9 amino acids (peptide)
peptide: QLFRNPHQA
notes: Synthetic peptide; also called HER2/neu 484-492
B3: HER2/neu peptide, position 711, 10 amino acids (peptide)
peptide: QMRILKETEL
notes: Synthetic peptide; also called HER2/neu 711-720
B4: HER2/neu peptide, position 24, 10 amino acids (peptide)
peptide: QVCTGTDMKL
notes: Synthetic peptide; also called HER2/neu 24-33
B5: HER2/neu peptide, position 828, 9 amino acids (peptide)
peptide: QIAKGMSYL
notes: Synthetic peptide; also called HER2/neu 828-836
B6: HER2/neu peptide, position 999, 10 amino acids (peptide)
peptide: PLDSTFYRSL
notes: Synthetic peptide; also called HER2/neu 999-1008
B7: HER2/neu peptide, position 1119, 10 amino acids (peptide)
peptide: PLPSETDGYV
notes: Synthetic peptide; also called HER2/neu 1119-1128
B8: HER2/neu peptide, position 54, 9 amino acids (peptide)
peptide: QVVQGNLEL
notes: Synthetic peptide; also called HER2/neu 54-62
B9: HER2/neu peptide, position 627, 9 amino acids (peptide)
peptide: PINCTHSCV
notes: Synthetic peptide; also called HER2/neu 627-635
B10: HER2/neu peptide, position 90, 10 amino acids (peptide)
peptide: QVRQVPLQRL
notes: Synthetic peptide; also called HER2/neu 90-99
B11: HER2/neu peptide, position 160, 9 amino acids (peptide)
peptide: QLCYQDTIL
notes: Synthetic peptide; also called HER2/neu 160-168
B12: HER2/neu peptide, position printed as 515 (read as 545), 10 amino acids (peptide)
peptide: RVLQGLPREY
notes: The row follows '545; 8 then 545; 10 at the same point
B13: HER2/neu peptide, position 402, 10 amino acids (peptide)
peptide: TLEEITGYLY
notes: Synthetic peptide; also called Her2/neu.402
B14: HER2/neu peptide, position 166, 10 amino acids (peptide)
peptide: TILWKDIFHK
notes: Synthetic peptide; also called Her2/neu.166
B15: HER2/neu peptide, position 296, 8 amino acids (peptide)
peptide: VTACPYNY
notes: Synthetic peptide; also called Her2/neu.296
B16: HER2/neu peptide, position 293, 9 amino acids (peptide)
peptide: ASCVTACPY
notes: Synthetic peptide; also called Her2/neu.293

In the first test the target is HLA-B*0702 (human). The experiment in a line: competition vs 125I-labelled probe peptide, purified HLA, gel filtration. Background: SEC sorts molecules by how far they enter the pores of the column.
B1 had an IC50 of 458 nM.

The next test has as its target HLA-B*5101 (human). The test is described as above.
On to B1, for which the IC50 was 177 nM.

For the next test, the target named is HLA-B*5401 (human). Described as above.
B1 had an IC50 of 385 nM.

For another test, the target named is T1, HLA-A*0201 (purified HLA class I molecule) (human).
T1 construct: also called HLA-A2.1
Put plainly: competition with 125I-labelled standard peptide for purified HLA, gel filtration.
Regarding QLRSLTEIL (Synthetic peptide) [HER2/neu peptide, position 141, 9 amino acids], the “relative binding ratio (IC50 of standard peptide / IC50 of test peptide)” value is 0.0008 ratio.

For the molecule B2, the “relative binding ratio (IC50 of standard peptide / IC50 of test peptide)” value was found to be 0.0062 ratio. The same measure, in the same setting: for B3 the value was 0.0001 ratio. Same read-out and setting: for PVTGASPGGL (Synthetic peptide) [HER2/neu peptide, position 128, 10 amino acids] the value was 0.0001 ratio. On the same count and under the same terms, the value for B4 was 0.0001 ratio; that for B5 was 0.0006 ratio.

As to B6, the “relative binding ratio (IC50 of standard peptide / IC50 of test peptide)” value turned out to be 0.0001 ratio.

B7: the “relative binding ratio (IC50 of standard peptide / IC50 of test peptide)” value amounted to 0.0001 ratio. Still for that read-out and setting: the value for B8 was 0.0001 ratio; that for RACHPCSPM (Synthetic peptide) [HER2/neu peptide, position 190, 9 amino acids] was 0.0001 ratio. Same read-out and setting: the value for B9 was 0.0002 ratio; that for QVPLQRLRIV (Synthetic peptide) [HER2/neu peptide, position 93, 10 amino acids] was 0.0001 ratio.

For PLQPEQLQV (Synthetic peptide) [HER2/neu peptide, position 391, 9 amino acids], the “relative binding ratio (IC50 of standard peptide / IC50 of test peptide)” value was 0.0002 ratio.

In the case of B10, the “relative binding ratio (IC50 of standard peptide / IC50 of test peptide)” value is 0.0001 ratio. On the same count and under the same terms, for PLTSIISAV (Synthetic peptide) [HER2/neu peptide, position 650, 9 amino acids] the value was 0.0015 ratio. On the same count and under the same terms, the value for B11 was 0.0001 ratio. Still for that read-out and setting: the value for PLTSIISAVV (Synthetic peptide) [HER2/neu peptide, position 650, 10 amino acids] was 0.0003 ratio.

The next test has as its target T2, HLA-A*0101 (human).
T2 construct: also called HLA-A1
Put plainly: competition with 125I-labelled probe peptide for purified HLA-A*0101, gel filtration.
For PLPSETDGY [HER2/neu peptide, position 1119, 9 amino acids, listing 1 of 2 here], the relative binding ratio was 0.0017 ratio (IC50 of standard peptide / IC50 of test peptide). Turning to SMPNPEGRY [HER2/neu peptide, position 281, 9 amino acids, listing 1 of 2 here], the relative binding ratio is 0.0028 ratio (IC50 of standard peptide / IC50 of test peptide).

Consider CVTACPYNY [HER2/neu peptide, position 295, 9 amino acids, listing 1 of 2 here], for which the relative binding ratio was 0.0042 ratio (IC50 of standard peptide / IC50 of test peptide). Still for that read-out and setting: the value for ASPLDSTFY [HER2/neu peptide, position 997, 9 amino acids, listing 1 of 2 here] was 0.029 ratio (IC50 of standard peptide / IC50 of test peptide); that for GSGAFGTVY [HER2/neu peptide, position 727, 9 amino acids, listing 1 of 2 here] was 0.0011 ratio (IC50 of standard peptide / IC50 of test peptide); that for FSPAFDNLY [HER2/neu peptide, position 1213, 9 amino acids, listing 1 of 2 here] was 0.043 ratio (IC50 of standard peptide / IC50 of test peptide). Consider ASCVTACPY (also called Her2/neu.293), for which the relative binding ratio is 0.055 ratio (IC50 of standard peptide / IC50 of test peptide). The same measure, in the same setting: for LMTFGAKPY [HER2/neu peptide, position 915, 9 amino acids, listing 1 of 2 here] the value was 0.0011 ratio (IC50 of standard peptide / IC50 of test peptide); for LIQRNPQLCY [HER2/neu peptide, position 154, 10 amino acids, listing 1 of 2 here], 0.03 ratio (IC50 of standard peptide / IC50 of test peptide).

In another test the target is HLA-A*1101 (human). The experiment in a line: competition with 125I-labelled probe peptide on purified HLA-A*1101, relative to standard peptide 940.06.
Consider RLLDIDETEY (Synthetic peptide) [HER2/neu peptide, position 868, 10 amino acids], for which the relative binding ratio was 0.0001 ratio (IC50 of standard peptide / IC50 of test peptide). Still for that read-out and setting: for RLVHRDLAAR (Synthetic peptide) [HER2/neu peptide, position 840, 10 amino acids] the value was 0.0001 ratio (IC50 of standard peptide / IC50 of test peptide). On the same count and under the same terms, the value for B12 was 0.005 ratio (IC50 of standard peptide / IC50 of test peptide). Same read-out and setting: for TVPWDQLFR (Synthetic peptide) [HER2/neu peptide, position 479, 9 amino acids] the value was 0.0072 ratio (IC50 of standard peptide / IC50 of test peptide); for SSEDCQSLTR (Synthetic peptide) [HER2/neu peptide, position 208, 10 amino acids], 0.002 ratio (IC50 of standard peptide / IC50 of test peptide); for VLIAHNQVR (Synthetic peptide) [HER2/neu peptide, position 84, 9 amino acids], 0.0007 ratio (IC50 of standard peptide / IC50 of test peptide).

Regarding SMPNPEGRY (Synthetic peptide), the relative binding ratio is 0.0003 ratio (IC50 of standard peptide / IC50 of test peptide). In the case of RILKETELR (Synthetic peptide) [HER2/neu peptide, position 713, 9 amino acids], the relative binding ratio was 0.0038 ratio (IC50 of standard peptide / IC50 of test peptide). Consider VARCPSGVK (Synthetic peptide) [HER2/neu peptide, position 597, 9 amino acids], for which the relative binding ratio was -0.0002 ratio (IC50 of standard peptide / IC50 of test peptide). For the molecule TIDVYMIMVK (Synthetic peptide) [HER2/neu peptide, position 948, 10 amino acids], the relative binding ratio was 0.12 ratio (IC50 of standard peptide / IC50 of test peptide). Same read-out and setting: the value for RILKETELRK (Synthetic peptide) [HER2/neu peptide, position 713, 10 amino acids] was 0.11 ratio (IC50 of standard peptide / IC50 of test peptide); that for VLVKSPNHVK (Synthetic peptide) [HER2/neu peptide, position 851, 10 amino acids] was 0.0072 ratio (IC50 of standard peptide / IC50 of test peptide); that for B13 was 0.0001 ratio (IC50 of standard peptide / IC50 of test peptide). As to VLQGLPREY (Synthetic peptide), the relative binding ratio is 0.0002 ratio (IC50 of standard peptide / IC50 of test peptide). Same read-out and setting: the value for B14 was 3.6 ratio (IC50 of standard peptide / IC50 of test peptide). Same read-out and setting: for SVFQNLQVIR (Synthetic peptide) [HER2/neu peptide, position 423, 10 amino acids] the value was 0.075 ratio (IC50 of standard peptide / IC50 of test peptide); for TLIDTNRSR (Synthetic peptide) [HER2/neu peptide, position 182, 9 amino acids], 0.0005 ratio (IC50 of standard peptide / IC50 of test peptide).

For the next test, the target named is T3, HLA-A*0101 (human).
T3 construct: also called HLA-A1
Put plainly: competition with 125I-labelled probe peptide for purified HLA-A*0101, gel filtration; ratio = IC50 of standard peptide 944.02 / IC50 of test peptide.
Regarding B15, the relative binding ratio is 0.1 ratio. On the same count and under the same terms, the value for TLEEITGY [HER2/neu peptide, position 402, 8 amino acids] was -0.0021 ratio; that for LIQRNPQLCY [HER2/neu peptide, position 154, 10 amino acids, listing 2 of 2 here] was 0.03 ratio; that for ASPLDSTFY [HER2/neu peptide, position 997, 9 amino acids, listing 2 of 2 here] was 0.029 ratio. Same read-out and setting: the value for ELHCPALVTY [HER2/neu peptide, position 265, 10 amino acids] was 0.0015 ratio.

In the case of MTFGAKPY [HER2/neu peptide, position 916, 8 amino acids], the relative binding ratio is -0.0021 ratio. With FSPAFDNLY [HER2/neu peptide, position 1213, 9 amino acids, listing 2 of 2 here], the relative binding ratio came to 0.043 ratio. The same measure, in the same setting: the value for GSGAFGTVY [HER2/neu peptide, position 727, 9 amino acids, listing 2 of 2 here] was 0.0011 ratio; that for VLQGLPREY was 0.005 ratio.

Take SMPNPEGRY [HER2/neu peptide, position 281, 9 amino acids, listing 2 of 2 here]: the relative binding ratio is 0.0028 ratio.

For CVTACPYNY [HER2/neu peptide, position 295, 9 amino acids, listing 2 of 2 here], the relative binding ratio amounted to 0.0042 ratio. Still for that read-out and setting: for B16 the value was 0.055 ratio; for ETLEEITGY [HER2/neu peptide, position 401, 9 amino acids], 0.043 ratio; for LMTFGAKPY [HER2/neu peptide, position 915, 9 amino acids, listing 2 of 2 here], 0.0011 ratio. On the same count and under the same terms, for QIAKGMSY [HER2/neu peptide, position 828, 8 amino acids] the value was -0.0021 ratio; for PLPSETDGY [HER2/neu peptide, position 1119, 9 amino acids, listing 2 of 2 here], 0.0017 ratio. Turning to PTAENPEY [HER2/neu peptide, position 1241, 8 amino acids], the relative binding ratio turned out to be 0.003 ratio.

As a reminder, the IC50 is the midpoint of a concentration-inhibition curve. High values mean lower potency, low ones higher potency.
